# Test results: patent US11440969B2, “Use of human epididymis protein 4 (HE4) for assessing responsiveness of MUC 16-positive cancer treatment” (Genentech, Inc., priority 2016, dated 2022)
# Test: Safety of DMUC5754A in patients: related adverse events, DLT, MTD/RP2D (NCI CTCAE v4.0)
# Type: in vivo, human
# Conditions: for On study PN = No, patients n (%) / On study PN = Yes, patients n (%) / Median time to onset of first PN on study: q1w dosing
# Procedure: This multicenter, open-label, dose-escalation study was designed to identify the recommended Phase II dose (RP2D) of DMUC5754A in patients with platinum-resistant OC or unresectable pancreatic cancer. In the single-agent dose escalation stage utilizing a 3+3 enrollment scheme, patients were given intravenous DMUC5754A (Genentech Inc.) 0.3-3.2 mg/kg every 3 weeks (q3w) to evaluate the safety, tolerability, and pharmacokinetics of DMUC5754A. Following determination of the maximum tolerated dose (MTD), dose-expansion cohorts were enrolled at the RP2D of 2.4 mg/kg to further characterize the safety and preliminary clinical efficacy of DMUC5754A.
# Dosing on a weekly (qlw) schedule was also evaluated at the RP2D, employing a 3+3 design to determine the MTD of weekly dosing, followed by a cohort expansion to further characterize the safety and activity of q1w dosing.
# Safety was evaluated according to NCI CTCAE v4.0. […] The maximum tolerated dose (MTD) was defined as the dose at which ≤1 of 6 patients at an assigned dose with protocol-defined DLT. Patients who experienced a DLT or adverse event (AE) meeting DLT criteria after the DLT assessment window were allowed to delay dosing for up to 2 weeks or undergo a dose reduction.
# [1] = q1w patients, over all dose levels
molecule,measurement,setting,value
"DMUC5754A: antibody-drug conjugate: humanized IgG1 anti-MUC16 monoclonal antibody and MMAE, linked through protease labile linker maleimidocaproyl-valine-citrulline-p-aminobenzyloxycarbonyl (conjugate, chains of the INN, looked up, MMAE via mc-vc-PABC linker) VH: EVQLVESGGGLVQPGGSLRLSCAASGYSITNDYAWNWVRQAPGKGLEWVGYISYSGYTTYNPSLKSRFTISRDTSKNTLYLQMNSLRAEDTAVYYCARWTSGLDYWGQGTLVTVSS VL: DIQMTQSPSSLSASVGDRVTITCKASDLIHNWLAWYQQKPGKAPKLLIYGATSLETGVPSRFSGSGSGTDFTLTISSLQPEDFATYYCQQYWTTPFTFGQGTKVEIK",protocol-defined DLTs,"3.2 mg/kg q3w, OC, 1 Grade 4 hypocalcaemia and 1 Grade 3 uric acid increase, in 2 of 3 DLT-evaluable patients",2
same,"Alopecia (related AE), patients n (%)",q1w 0.8 mg/kg (n = 3),0
same,"Anemia (related AE), patients n (%)",q1w 0.8 mg/kg (n = 3),1 (33.3%)
same,"Any adverse events (related), patients n (%)",q1w 0.8 mg/kg (n = 3),2 (66.7%)
same,"Arthralgia (related AE), patients n (%)",q1w 0.8 mg/kg (n = 3),0
same,"Aspartate aminotransferase increased (related AE), patients n (%)",q1w 0.8 mg/kg (n = 3),0
same,"Constipation (related AE), patients n (%)",q1w 0.8 mg/kg (n = 3),1 (33.3%)
same,"Decreased appetite (related AE), patients n (%)",q1w 0.8 mg/kg (n = 3),0
same,"Diarrhea (related AE), patients n (%)",q1w 0.8 mg/kg (n = 3),0
same,"Fatigue (related AE), patients n (%)",q1w 0.8 mg/kg (n = 3),0
same,"Headache (related AE), patients n (%)",q1w 0.8 mg/kg (n = 3),0
same,"Hypomagnesaemia (related AE), patients n (%)",q1w 0.8 mg/kg (n = 3),1 (33.3%)
same,"Hyponatremia (related AE), patients n (%)",q1w 0.8 mg/kg (n = 3),0
same,"Nausea (related AE), patients n (%)",q1w 0.8 mg/kg (n = 3),0
same,"Neutropenia (related AE), patients n (%)",q1w 0.8 mg/kg (n = 3),1 (33.3%)
same,"Peripheral neuropathy (related AE), patients n (%)",q1w 0.8 mg/kg (n = 3),0
same,"Vomiting (related AE), patients n (%)",q1w 0.8 mg/kg (n = 3),0
same,"Alopecia (related AE), patients n (%)",q1w 1.1 mg/kg (n = 7),1 (14.3%)
same,"Anemia (related AE), patients n (%)",q1w 1.1 mg/kg (n = 7),3 (42.9%)
same,"Any adverse events (related), patients n (%)",q1w 1.1 mg/kg (n = 7),7 (100.0%)
same,"Arthralgia (related AE), patients n (%)",q1w 1.1 mg/kg (n = 7),2 (28.6%)
same,"Aspartate aminotransferase increased (related AE), patients n (%)",q1w 1.1 mg/kg (n = 7),2 (28.6%)
same,"Constipation (related AE), patients n (%)",q1w 1.1 mg/kg (n = 7),0
same,"Decreased appetite (related AE), patients n (%)",q1w 1.1 mg/kg (n = 7),1 (14.3%)
same,"Diarrhea (related AE), patients n (%)",q1w 1.1 mg/kg (n = 7),3 (42.9%)
same,"Fatigue (related AE), patients n (%)",q1w 1.1 mg/kg (n = 7),2 (28.6%)
same,"Headache (related AE), patients n (%)",q1w 1.1 mg/kg (n = 7),2 (28.6%)
same,"Hypomagnesaemia (related AE), patients n (%)",q1w 1.1 mg/kg (n = 7),2 (28.6%)
same,"Hyponatremia (related AE), patients n (%)",q1w 1.1 mg/kg (n = 7),1 (14.3%)
same,"Nausea (related AE), patients n (%)",q1w 1.1 mg/kg (n = 7),4 (57.1%)
same,"Neutropenia (related AE), patients n (%)",q1w 1.1 mg/kg (n = 7),1 (14.3%)
same,"Peripheral neuropathy (related AE), patients n (%)",q1w 1.1 mg/kg (n = 7),1 (14.3%)
same,"Vomiting (related AE), patients n (%)",q1w 1.1 mg/kg (n = 7),2 (28.6%)
same,"Alopecia (related AE), patients n (%)",q1w 1.4 mg/kg (n = 7),2 (28.6%)
same,"Anemia (related AE), patients n (%)",q1w 1.4 mg/kg (n = 7),2 (28.6%)
same,"Any adverse events (related), patients n (%)",q1w 1.4 mg/kg (n = 7),5 (71.4%)
same,"Arthralgia (related AE), patients n (%)",q1w 1.4 mg/kg (n = 7),1 (14.3%)
same,"Aspartate aminotransferase increased (related AE), patients n (%)",q1w 1.4 mg/kg (n = 7),1 (14.3%)
same,"Constipation (related AE), patients n (%)",q1w 1.4 mg/kg (n = 7),2 (28.6%)
same,"Decreased appetite (related AE), patients n (%)",q1w 1.4 mg/kg (n = 7),3 (42.9%)
same,"Diarrhea (related AE), patients n (%)",q1w 1.4 mg/kg (n = 7),0
same,"Fatigue (related AE), patients n (%)",q1w 1.4 mg/kg (n = 7),2 (28.6%)
same,"Headache (related AE), patients n (%)",q1w 1.4 mg/kg (n = 7),0
same,"Hypomagnesaemia (related AE), patients n (%)",q1w 1.4 mg/kg (n = 7),0
same,"Hyponatremia (related AE), patients n (%)",q1w 1.4 mg/kg (n = 7),1 (14.3%)
same,"Nausea (related AE), patients n (%)",q1w 1.4 mg/kg (n = 7),4 (57.1%)
same,"Neutropenia (related AE), patients n (%)",q1w 1.4 mg/kg (n = 7),1 (14.3%)
same,"Peripheral neuropathy (related AE), patients n (%)",q1w 1.4 mg/kg (n = 7),2 (28.6%)
same,"Vomiting (related AE), patients n (%)",q1w 1.4 mg/kg (n = 7),5 (71.4%)
same,"Alopecia (related AE), patients n (%)",q1w 1.6 mg/kg (n = 6),2 (33.3%)
same,"Anemia (related AE), patients n (%)",q1w 1.6 mg/kg (n = 6),2 (33.3%)
same,"Any adverse events (related), patients n (%)",q1w 1.6 mg/kg (n = 6),6 (100.0%)
same,"Arthralgia (related AE), patients n (%)",q1w 1.6 mg/kg (n = 6),0
same,"Aspartate aminotransferase increased (related AE), patients n (%)",q1w 1.6 mg/kg (n = 6),1 (16.7%)
same,"Constipation (related AE), patients n (%)",q1w 1.6 mg/kg (n = 6),0
same,"Decreased appetite (related AE), patients n (%)",q1w 1.6 mg/kg (n = 6),1 (16.7%)
same,"Diarrhea (related AE), patients n (%)",q1w 1.6 mg/kg (n = 6),2 (33.3%)
same,"Fatigue (related AE), patients n (%)",q1w 1.6 mg/kg (n = 6),3 (50.0%)
same,"Headache (related AE), patients n (%)",q1w 1.6 mg/kg (n = 6),1 (16.7%)
same,"Hypomagnesaemia (related AE), patients n (%)",q1w 1.6 mg/kg (n = 6),2 (33.3%)
same,"Hyponatremia (related AE), patients n (%)",q1w 1.6 mg/kg (n = 6),1 (16.7%)
same,"Nausea (related AE), patients n (%)",q1w 1.6 mg/kg (n = 6),3 (50.0%)
same,"Neutropenia (related AE), patients n (%)",q1w 1.6 mg/kg (n = 6),3 (50.0%)
same,"Peripheral neuropathy (related AE), patients n (%)",q1w 1.6 mg/kg (n = 6),1 (16.7%)
same,"Vomiting (related AE), patients n (%)",q1w 1.6 mg/kg (n = 6),2 (33.3%)
same,"Alopecia (related AE), patients n (%)",q1w All Patients (n = 23),5 (21.7%)
same,"Anemia (related AE), patients n (%)",q1w All Patients (n = 23),8 (34.8%)
same,"Any adverse events (related), patients n (%)",q1w All Patients (n = 23),20 (87.0%)
same,"Arthralgia (related AE), patients n (%)",q1w All Patients (n = 23),3 (13.0%)
same,"Aspartate aminotransferase increased (related AE), patients n (%)",q1w All Patients (n = 23),4 (17.4%)
same,"Constipation (related AE), patients n (%)",q1w All Patients (n = 23),3 (13.0%)
same,"Decreased appetite (related AE), patients n (%)",q1w All Patients (n = 23),5 (21.7%)
same,"Diarrhea (related AE), patients n (%)",q1w All Patients (n = 23),5 (21.7%)
same,"Fatigue (related AE), patients n (%)",q1w All Patients (n = 23),7 (30.4%)
same,"Headache (related AE), patients n (%)",q1w All Patients (n = 23),3 (13.0%)
same,"Hypomagnesaemia (related AE), patients n (%)",q1w All Patients (n = 23),5 (21.7%)
same,"Hyponatremia (related AE), patients n (%)",q1w All Patients (n = 23),3 (13.0%)
same,"Nausea (related AE), patients n (%)",q1w All Patients (n = 23),11 (47.8%)
same,"Neutropenia (related AE), patients n (%)",q1w All Patients (n = 23),6 (26.1%)
same,"Vomiting (related AE), patients n (%)",q1w All Patients (n = 23),9 (39.1%)
same,patients with AEs leading to treatment discontinuation,"q1w cohorts, 3/23 patients",13.0%
same,"On study PN = No, patients n (%)",Prior neuropathy = No,10 (43%)
same,"On study PN = Yes, patients n (%)",Prior neuropathy = No,2 (9%)
same,Median time to onset of first PN on study,Prior neuropathy = Yes,190 days
same,"On study PN = No, patients n (%)",Prior neuropathy = Yes,9 (39%)
same,"On study PN = Yes, patients n (%)",Prior neuropathy = Yes,2 (9%)
same,Median time to onset of first PN on study,Total,190 days
same,"On study PN = No, patients n (%)",Total,19 (83%)
same,"On study PN = Yes, patients n (%)",Total,4 (17%)
same,"Drug-related SAE dehydration, patients",q1w patients,1
same,"Drug-related SAE diarrhea, patients",q1w patients,1
same,"Drug-related SAE nausea, patients",q1w patients,1
same,"Drug-related SAE posterior reversible encephalopathy syndrome, patients",q1w patients,1
same,"alopecia, related AE",[1],21.7%
same,"anemia, related AE",[1],34.8%
same,"decreased appetite, related AE",[1],21.7%
same,"diarrhea, related AE",[1],21.7%
same,"fatigue, related AE",[1],30.4%
same,"hypomagnesaemia, related AE",[1],21.7%
same,"nausea, related AE",[1],47.8%
same,"neutropenia, related AE",[1],26.1%
same,"vomiting, related AE",[1],39.1%
same,Grade ≥3 related diarrhea,"q1w patients, total",8.7%
same,Grade ≥3 related hyponatraemia,"q1w patients, total",8.7%
same,Grade ≥3 related neutropenia,"q1w patients, total",17.4%
same,RP2D,q1w schedule,1.4 mg/kg
same,"Grade ≥3 related diarrhea, patients","q1w, at 1.4 mg/kg",0
same,"Grade ≥3 related hyponatraemia, patients","q1w, at 1.4 mg/kg",0
same,"Grade ≥3 related neutropenia, patients","q1w, at 1.4 mg/kg",1
same,MTD dose,q3w,2.4 mg/kg
same,"Alopecia (related AE), patients",q3w 0.3 mg/kg (n = 3),0
same,"Any adverse events (related), patients",q3w 0.3 mg/kg (n = 3),3
same,"Arthralgia (related AE), patients",q3w 0.3 mg/kg (n = 3),0
same,"Asthenia (related AE), patients",q3w 0.3 mg/kg (n = 3),0
same,"Decreased appetite (related AE), patients",q3w 0.3 mg/kg (n = 3),1
same,"Diarrhea (related AE), patients",q3w 0.3 mg/kg (n = 3),0
same,"Dysgeusia (related AE), patients",q3w 0.3 mg/kg (n = 3),0
same,"Fatigue (related AE), patients",q3w 0.3 mg/kg (n = 3),0
same,"Hypokalemia (related AE), patients",q3w 0.3 mg/kg (n = 3),0
same,"Hypomagnesaemia (related AE), patients",q3w 0.3 mg/kg (n = 3),1
same,"Hypophosphatemia (related AE), patients",q3w 0.3 mg/kg (n = 3),0
same,"Nausea (related AE), patients",q3w 0.3 mg/kg (n = 3),1
same,"Neutropenia (related AE), patients",q3w 0.3 mg/kg (n = 3),0
same,"Peripheral neuropathy (related AE), patients",q3w 0.3 mg/kg (n = 3),1
